This assay has as its target Recombinant rat SNX27 PDZ domain (residues 38-135) (rat) (UniProt Q8K4V4). The assay is described as follows: ITC.
The term Kd denotes the free concentration of one partner at which half of the binding sites on the other are occupied at equilibrium, for simple one-to-one binding. Turning to “GluN2A C-terminal peptide, S1459A phospho-deficient mutant”, the dissociation constant Kd is 49 µM.
The value for “GluN2A C-terminal peptide, S1459E phospho-mimetic mutant” was 25 µM.
The value for GluN2A C-terminal peptide, wild type was 46 µM.
As for “Phosphorylated GluN2A C-terminal peptide (phospho-Ser-1459)”, the Kd stood at 14 µM.

These data come from article PMC8313361.
